The results in this text go back to US6407222B1, “Cloning and expression of dog gonadotropin releasing hormone receptor” (Merck & Co., Inc., priority 1999, dated 2002).

Some results are limits rather than exact numbers.

By EC50 is commonly meant the concentration at which the effect is half-maximal.

The target of experiment [1] is dog gonadotropin-releasing hormone (GnRH) receptor (dog) (UniProt Q9MZI6). As to the kind of experiment: whole cell radioligand binding assay on CHO-K1 clone 1B2-1F9.
For experiment [2] the target is unchanged. As to the kind of experiment: whole cell radioligand binding assay on transfected CHO-K1 clones (seven of 71 clones).
For another experiment, the target named is T1, dog GnRH receptor (Canis lupus familiaris, UniProt Q9MZI6).
T1 construct: The full-length coding cDNA of the dog GnRH receptor was cloned from dog pituitary mRNA by RT-PCR; expressed in transfected cells
T1 sequence (Q9MZI6 1-327): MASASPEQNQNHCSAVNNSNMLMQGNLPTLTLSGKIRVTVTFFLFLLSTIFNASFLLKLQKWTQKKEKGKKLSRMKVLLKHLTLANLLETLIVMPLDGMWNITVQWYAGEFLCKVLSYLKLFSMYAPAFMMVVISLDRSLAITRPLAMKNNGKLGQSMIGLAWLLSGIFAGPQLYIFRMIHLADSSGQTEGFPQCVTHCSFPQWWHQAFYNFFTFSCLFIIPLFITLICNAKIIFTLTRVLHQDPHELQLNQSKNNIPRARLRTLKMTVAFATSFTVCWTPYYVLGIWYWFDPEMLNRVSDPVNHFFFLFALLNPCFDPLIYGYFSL
Description: Phosphoinositide (PI) turnover assay in 1B2-1F9 cells (CHO-K1 stably expressing the dog GnRH receptor). The format is cell-based. The settings on record: 1B2-1F9 CHO-K1 clone expressing dog GnRH receptor; 37° C., 1 hour; FIG. 5; read-out: EC50 of GnRH-stimulated PI turnover.

Experiment [3] has as its target dog gonadotropin-releasing hormone (GnRH) receptor (dog) (UniProt Q9MZI6). As to the kind of experiment: cell-based or functional assay.

Description for dog GnRH receptor: The coding cDNA of the dog GnRH receptor was subcloned into a polycistronic expression vector pIRES1.neo (Clontech Laboratories, Palo Alto, Calif.) to generate cells stably expressing the receptor. The plasmid DNA of pIRES1.neo-dog-GnRHR was transfected into CHO-K1 cells by lipofectin (GIBCO-BRL, Grand Island, N.Y.) following the manufacturer's instruction. Transfection was carried out overnight and the cells were split 48 hours later. G418 at 1 mg/ml was added 24 hours after splitting, and its concentration was increased to 2 mg/ml in 2-3 days. After 10 days selection by G418, colonies were picked and transferred to 24-well plates. The clones that expressed the dog GnRH receptor were screened by a whole cell binding assay using a radiolabeled peptide agonist of GnRH, 5-(^125Iodo-Tyr)-Buserelin (Woods Assay, Portland, Oreg.). […] After single cell isolation, the membrane from this clone was prepared, and the membrane binding assay was performed using ^125I-buserelin. […] The GnRH-stimulated PI turnover was also performed.
1B2-1F9 cells are functionally coupled to phospholipase C. […] The eluate was then counted in a scintillation counter.

The compound 5-(125Iodo-Tyr)-Buserelin (peptide) yielded a specific binding activity, fold above the background in experiment [1] of more than 10 fold. The specific binding activity, fold above the non-specific binding in experiment [2] was 5 fold. With `CC(C)C[C@H](NC(=O)CNC(=O)[C@H](Cc1ccc(O)cc1)NC(=O)[C@H](CO)NC(=O)[C@H](Cc1c[nH]c2ccccc12)NC(=O)[C@H](Cc1cnc[nH]1)NC(=O)[C@@H]1CCC(=O)N1)C(=O)N[C@@H](CCCNC(=N)N)C(=O)N1CCC[C@H]1C(=O)NCC(N)=O` [GnRH, Gonadotropin-releasing hormone], the concentration for a half-maximal effect (EC50) on dog GnRH receptor is 0.3 to 0.4 nM. The compound “Gonadotropin-releasing hormone (GnRH) (from UniProt P01148 24-92) (ligand)” displayed an EC50 of GnRH-stimulated PI turnover in experiment [3] of 0.3 to 0.4 nM.
